Holding throughout (assay): anti-GFP affinity gel immunoprecipitation and western blot densitometry
In general terms: Immunoblotting shows a protein as a band on a membrane.

For one experiment, the target named is mCherry-A171. Conditions: HEK293T cells co-transfected, lysed at 2 dpt; parent: est. 1.0; read off a plot.
The target in the next experiment is mCherry-A123. Conditions: HEK293T cells co-transfected, lysed at 2 dpt; parent: est. 0.97; read off a plot.
The target in a further experiment is mCherry-A44. As to conditions: HEK293T cells co-transfected, lysed at 2 dpt; parent: est. 1.0; read off a plot.

In the case of “Etf-2 (full-length)–GFP (from UniProt Q2GHK1) Q245A”, the figures for the response (relative density (intrabody / Etf-2-GFP)) in the experiment with mCherry-A171, in the experiment with mCherry-A123 and with mCherry-A44 were 0.83, 0.84 and 0.25, respectively.

As for “Etf-2 (full-length)–GFP (from UniProt Q2GHK1) R188A”, the response (relative density (intrabody / Etf-2-GFP)) in the experiment with mCherry-A171 was determined as 0.85; with mCherry-A123, 0.94; with mCherry-A44, 1.1.

With “Etf-2 (full-length)–GFP (from UniProt Q2GHK1) R188A; Q245A”, the response (relative density (intrabody / Etf-2-GFP)) with mCherry-A171 was determined as 0.88; in the experiment with mCherry-A123, 0.1; with mCherry-A44 it was 0.24.

(Values after article PMC12344899.)
